Results on two molecules are retold here after US20160193281A1 (BLUEBERRY THERAPEUTICS, published 2016).

The target in test [1] is T1, MAP kinase p38α, 6-his C-myc tagged protein expressed in E. coli (human, UniProt Q16539 2-360, limits assumed). As to the kind of experiment: cell-based or functional assay.
The target in another test is p38β (UniProt Q15759 1-364, limits assumed). As to the kind of experiment: cell-based or functional assay.
Test [2] deals with T1, MAP kinase p38α, 6-his C-myc tagged …. As to the kind of experiment: biochemical kinase inhibition assay; biochemical enzyme assay, not Biacore.
For test [3], the target named is T2, MAP kinase p38α (non-phosphorylated, OH-p38α) as used in the Biacore inhibition in solution assay (human, UniProt Q16539 2-360, limits assumed).
T2 construct: The text says the chip was calibrated with nonphosphorylated or phosphorylated p38α; also called MAPK14; SAPK2a
T2 sequence (Q16539 2-360 limits assumed): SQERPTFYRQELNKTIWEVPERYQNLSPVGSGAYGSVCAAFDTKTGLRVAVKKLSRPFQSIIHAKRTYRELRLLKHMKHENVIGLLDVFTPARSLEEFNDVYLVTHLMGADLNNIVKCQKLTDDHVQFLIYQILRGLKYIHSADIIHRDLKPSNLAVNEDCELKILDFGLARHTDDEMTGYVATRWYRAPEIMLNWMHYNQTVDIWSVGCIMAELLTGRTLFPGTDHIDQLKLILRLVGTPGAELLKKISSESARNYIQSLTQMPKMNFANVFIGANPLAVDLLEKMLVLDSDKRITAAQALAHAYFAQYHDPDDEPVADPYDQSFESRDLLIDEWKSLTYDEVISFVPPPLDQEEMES
The test can be described thus: Biacore 3000 inhibition in solution assay; p38α pre-incubated with peptide, free p38α captured on immobilised ureidoquinazoline compound; Biacore inhibition in solution assay. On the technique in general: In SPR one partner is held on a chip, and binding of the other changes the refractive index at the surface.

For test [4], the target named is T3, uniformly 15N,2H-labelled 6His-MAP kinase p38α (human, UniProt Q16539 2-360, limits assumed, uniformly 15N,2H-labelled).
T3 construct: not shown: 6His tag
T3 sequence (Q16539 2-360 limits assumed): as above
As to the kind of experiment: NMR 1H-15N TROSY-HSQC titration, chemical shift changes in slow exchange.

Test [5] concerns the target 6 kinases (of the selectivity panel, with slight activity). The test can be described thus: cell-based or functional assay.

Where no end group is shown, it is not given here. Bounds are passed on as bounds.

T1 sequence (Q16539 2-360 limits assumed): as above
Chain of p38β (Q15759 whole entry): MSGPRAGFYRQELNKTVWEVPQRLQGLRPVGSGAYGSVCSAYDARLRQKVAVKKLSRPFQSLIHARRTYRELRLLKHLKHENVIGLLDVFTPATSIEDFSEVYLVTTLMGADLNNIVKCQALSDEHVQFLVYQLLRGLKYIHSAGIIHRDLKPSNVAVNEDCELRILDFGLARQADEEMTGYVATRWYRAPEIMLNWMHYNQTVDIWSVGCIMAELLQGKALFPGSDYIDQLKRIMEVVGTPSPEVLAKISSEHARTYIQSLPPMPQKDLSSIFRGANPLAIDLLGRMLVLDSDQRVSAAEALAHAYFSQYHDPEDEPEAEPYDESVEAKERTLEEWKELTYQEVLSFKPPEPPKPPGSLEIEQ

B1: BB2702 (N-acetylated peptide HKSRALLIFQKIMWLRRQ) (peptide)
peptide: Ac-HKSRALLIFQKIMWLRRQ
notes: Synthetic peptide, all L-amino acids, peptide bonds throughout, N-acetylated; also called BB2702 peptide
B1: in test [1], the “IC50 (inhibition of MAP kinase p38α)” value is 7 nM and the “IC50 for inhibition of the activation of MAP kinase p38α by MKK6” value was determined as 1 nM. The “selectivity (kinase inhibition) compared to p38α” value with p38β was 100 fold. For the same molecule, the Ki (as a rule, a measure of affinity in units of concentration, obtained from inhibition or displacement) in test [2] was found to be 7 nM. Besides, the Kd – broadly, the concentration at which binding is half-saturated – in test [3] was 25 nM. Also, the dissociation constant Kd in test [4] was less than 1000 nM.

B2: BB2702 (N-acetylated peptide …) (peptide)
peptide: Ac-HKSRALLIFQKIMWLRRQ
Take B2: the selectivity (kinase inhibition) compared to p38α in test [5] lay within 500 to 1000 fold.
